From patent publication US9175313B2, “Three-dimensional structure of isoprene synthase and its use thereof for generating variants” (Danisco US Inc., priority 2009, dated 2015)
Numbering of substitutions follows the chain as printed. In names and notes the source's numbering stands.

B1: L494P: P. alba IspS variant L494P; pDW101, strain DW399, SEQ ID NO: 69 (protein)
chain: MEARRSANYEPNSWDYDYLLSSDTDESIEVYKDKAKKLEAEVRREINNEKAEFLTLLELIDNVQRLGLGYRFESDIRGALDRFVSSGGFDAVTKTSLHGTALSFRLLRQHGFEVSQEAFSGFKDQNGNFLENLKEDIKAILSLYEASFLALEGENILDEAKVFAISHLKELSEEKIGKELAEQVNHALELPLHRRTQRLEAVWSIEAYRKKEDANQVLLELAILDYNMIQSVYQRDLRETSRWWRRVGLATKLHFARDRLIESFYWAVGVAFEPQYSDCRNSVAKMFSFVTIIDDIYDVYGTLDELELFTDAVERWDVNAINDLPDYMKLCFLALYNTINEIAYDNLKDKGENILPYLTKAWADLCNAFLQEAKWLYNKSTPTFDDYFGNAWKSSSGPLQLVFAYFAVVQNIKKEEIENLQKYHDTISRPSHIFRLCNDLASASAEIARGETANSVSCYMRTKGISEELATESVMNLIDETWKKMNKEKLGGSPFAKPFVETAINLARQSHCTYHNGDAHTSPDELTRKRVLSVITEPILPFERENLYFQGLEHHHHHH
B2: T536F: P. alba IspS variant T536F; pDW87, strain DW363, SEQ ID NO: 95 (protein)
chain: B1 chain with P494L, T536F

What was measured:
[1] = Specific activity measurement of purified isoprene synthase variants (4 mM DMAPP, 30 C, GC-MS headspace); assay type: biochemical
Summary of the method: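 Ni-affinity-purified, buffer-exchanged enzyme incubated with 4 mM DMAPP and 50 mM MgCl2 in 50 mM Tris, 50 mM NaCl, pH 8, for 15 min at 30 C in sealed vials; stopped with EDTA. Headspace isoprene quantified by GC-MS, in triplicate; protein concentration from A280 with calculated extinction coefficient.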

[2] = kcat, KM and Ki determination, rate vs [DMAPP], fit to uncompetitive substrate inhibition; assay type: biochemical
Protocol: 10 uL of purified enzyme was incubated with DMAPP at concentrations ranging from 1.25 to 20 mM DMAPP in a buffer containing 50 mM Tris, 50 mM MgCl2 and 50 mM NaCl (pH=8) to a final volume of 100 uL for 15 min. at 30 C in gas tight 2 mL vials. Reactions were terminated with the addition of 100 uL of 250 mM EDTA, pH=8. Samples were analyzed by GC-MS to determine the concentration of isoprene in the headspace of the vials. Data were analyzed using Kaleidagraph and fit to following equation for uncompetitive substrate inhibition: rate/E=kcat*S/(KM+S*(1+S/Ki)). All kinetic assays were performed in triplicate.
Protein concentration was determined by measuring the absorbance of each protein solution at 280 nm on a Helwlett Pachard 8453 UV-Vis spectrophotometer and converting the absorbance to protein concentration using the extinction coefficient as determined on the Expasy website (Gasteiger E., Hoogland C., Gattiker A., Duvaud S., Wilkins M. R., Appel R. D., Bairoch A.; Protein Identification and Analysis Tools on the ExPASy Server; (In) John M. Walker (ed): The Proteomics Protocols Handbook, Humana Press (2005). pp. 571-607). The protein concentrations of isoprene synthase variants assayed for KM and kcat determination were verified by comparative gel electrophoresis of a dilution series of each protein (FIG. 61).

[3] = Differential scanning calorimetry, thermal midpoint (Tm); assay type: physicochemical
Protocol: Excessive heat capacity curves were measured using an ultrasensitive scanning high-throughput microcalorimeter, VP-Cap DSC (MicroCal, Inc., Northampton, Mass.). The standard procedure for Differential Scanning calorimetry (DSC) measurements and the theory of the technique is previously published (Freire, E. (1995) Differential Scanning calorimetry Methods. Mol. Biol. 41, 191-218). Approximately 500 μL of 0.5 mg/ml IspS (from strain MD09-167) or variant IspS-L494P (from strain DW399) and IspS-T536F (from strain DW363) (in the absence or presence of 5 mM sodium pyrophosphate) were scanned over a 30-100° C. temperature range. The same sample was then re-scanned to check the reversibility of the process. For IspS the thermal unfolding process was irreversible. The buffer used was 50 mM HEPES, 5 mM MgCl2, pH 7.4, with and without 5 mM sodium pyrophosphate. Sodium pyrophosphate was included for its ability to function as a substrate analog. A 200° C./hr scan rate was used to minimize any artifacts that may result from aggregation. The thermal midpoint (Tm) of the DSC curves was used as an indicator of the thermal stability. The thermal melting curves and the melting points for the wild type IspS and variants are shown in FIG. 56 (buffer only) and 57 (with 5 mM sodium pyrophosphate).

[4] = Isoprene synthase activity vs temperature (DMAPP assay, 25 to 80 C); assay type: biochemical; conditions: FIG. 58
Protocol: The activity of wild type IspS and variants IspS-L494P and IspS-T536F was measured across a spectrum of temperatures. Individual DMAPP assays were performed at 5° C. intervals from 25° C. to 80° C. by incubating the vials in a pre-heated water bath.
The following reaction mixture was used for the DMAPP assay: 25 μL purified protein, 5 μL MgCl2 (1 M), 5 μL DMAPP (100 mM), and 65 μL 100 mM Tris pH 8, 100 mM NaCl for a total volume of 100 μL. The reaction is performed at the specified temperature for 15 minutes in a gas tight 1.8 mL GC tube. Reactions are terminated by the addition of 100 μL 500 mM EDTA (pH 8). The amount of isoprene produced was measured by GC/MS.
The analysis was performed using an Agilent 6890 GC/MS system interfaced with a CTC Analytics CombiPAL autosampler operating in headspace mode. An Agilent HP-5MS GC/MS column (30 m×0.25 mm; 0.25 μm film thickness) was used for separation of analytes. The sampler was set up to inject 500 μL of headspace gas. The GC/MS method utilized helium as the carrier gas at a flow of 1 ml/min. The injection port was held at 250° C. with a split ratio of 50:1. The oven temperature was held at 37° C. for the […] duration of the analysis. The Agilent 5793N mass selective detector was run in single ion monitoring (SIM) mode on m/z 67. The detector was switched off from 1.4 to 1.7 minutes to allow the elution of permanent gases.

[5] = buffer alone (50 mM HEPES, 5 mM MgCl2, pH 7.4)
[6] = in the presence of 5 mM sodium pyrophosphate

| Ki ([2]; uncompetitive substrate inhibition by DMAPP, average of three trials ± one standard deviation, read-out: KiDMAPP) [mM] | Molecule | S.A. ([1]; 50 mM NaCl, 50 mM Tris pH = 8, 30° C.) [nmol/mg/min] | Variant S.A./WT S.A. ([1]; 50 mM NaCl, 50 mM Tris pH = 8, 30° C., ratio to WT) | specific activity compared to WT isoprene synthase, in words ([1]; 30 C, purified enzyme) | specific activity, times/fold greater than WT ([1]; 30 C, purified enzyme, listed as P) | specific activity, times/fold greater than WT ([1]; 30 C, purified enzyme, listed as β) | KM compared to WT isoprene synthase, in words ([2]; 1.25 to 20 mM DMAPP, 30 C) | rate profile vs [DMAPP] ([2]; 1.25 to 20 mM DMAPP, 30 C) | Km ([2]; 1.25 to 20 mM DMAPP, 30 C, average of three trials ± one standard deviation) [mM] | kcat ([2]; 1.25 to 20 mM DMAPP, 30 C, average of three trials ± one standard deviation, in s^-1 (unit assumed)) | kcat compared to WT isoprene synthase, in words ([2]; 1.25 to 20 mM DMAPP, 30 C, listed as β) | increase in the Tm vs wild type ([3]; buffer alone) [°C] | thermal melting point (Tm) [3, 5] [°C] | increase in the Tm vs wild type [3, 6] [°C] | thermal melting point (Tm) [3, 6] [°C] | temperature activity ratio curve (specific activity at a given temperature / at 35° C.), in words [4] |
| --- | --- | --- | --- | --- | --- | --- | --- | --- | --- | --- | --- | --- | --- | --- | --- | --- |
| 13 ± 1 | B1 | 950 ± 40 | 2.0 | increased specific activity | 2.0 | 2 | less than the KM of the WT | uncompetitive substrate inhibition by DMAPP | 3.6 ± 0.5 | 2.1 ± 0.1 | greater than the kcat of the WT | 2.1 | 60.4 | 2.3 | 57.0 |  |
|  | B2 |  |  |  |  |  |  |  |  |  |  | 3.8 | 62.1 | 4.7 | 59.4 | increased activity and thermostability |
